Measured values reported in the supplement of paper PMC10724198.
± gives the standard deviation of the averaged measurements.
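Further: PSI is a weighted mean of sequencing reads over stability bins, variants kept only with over 10 reads, mCherry proximal and sfGFP distal, peptide attached via GGGS linker.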

The sequences below were run on Saccharomyces cerevisiae (assay: protein stability index of tFT-peptide fusion (C-terminal peptide) (PSI (0-1 scale)); higher = more stable (slower turnover)). Conditions: genetic background: wild type; temperature: 30 C.
Experimental: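 Multiplexed protein stability (MPS) profiling in S. cerevisiae. Random 12-aa peptides (tFT-X12 library) are fused to the C-terminus of a sfGFP-mCherry tandem fluorescent timer, after mCherry and a GGGS linker. Cells are FACS-sorted into 8 mCherry/sfGFP bins and deep-sequenced. The protein stability index (PSI) is the read-weighted bin average, scaled from 0 (unstable) to 1 (stable). Only peptides with >10 reads are reported; cells were grown at 30 °C in SC-His with glucose.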
With SLGCLLENRRGL the protein stability index was 0.641 ± 0.015.
Sequence PRHYSPPPVPSR has a protein stability index of 0.686 ± 0.026.
With YLFVRTGYRCKW the protein stability index was 0.681 ± 0.033.
YRALRRAFENKI gave a protein stability index of 0.633 ± 0.028.
VGSGFGGAGVIG gave a protein stability index of 0.696 ± 0.045.
Sequence CFCSWFWDLVLC has a protein stability index of 0.628 ± 0.0076.
For AICRVGGFGRKD, the protein stability index was 0.717 ± 0.01.
QKKKKKIKEHSK gave a protein stability index of 0.626 ± 0.031.
HILSPPPRPPLV gave a protein stability index of 0.719 ± 0.02.
With PSPPSPPPPPPT the protein stability index was 0.749 ± 0.06.
For PPPPPRAAPPPP, the protein stability index was 0.668 ± 0.061.
Work on SKREYGKEYKRK yielded a protein stability index of 0.656 ± 0.0084.
LPPPPTFPPPRS gave a protein stability index of 0.8307 ± 0.0063.
For RPSPMPTATPAT, the protein stability index was 0.701 ± 0.029.
For LYKYPKRCVDIG, the protein stability index was 0.676 ± 0.057.
SQMMLKQKFLRR gave a protein stability index of 0.628 ± 0.024.
With GSSLRRLPASCD the protein stability index was 0.676 ± 0.066.
For RALPLLPLPRLS, the protein stability index was 0.66 ± 0.024.
TTIVGRIMRVMR was tested, and the protein stability index was 0.706 ± 0.012.
In the case of PPPPLPPSPCSL, the protein stability index is reported as 0.567 ± 0.019.
For SICSIRPFSDLP, the protein stability index was 0.683 ± 0.015.
KKEAKRDKKSGR showed a protein stability index of 0.727 ± 0.12.
SRGVLLCHCSIA gave a protein stability index of 0.758 ± 0.12.
SSNSSFFIWGLV was tested, and the protein stability index was 0.7119 ± 0.00078.
With SRRGARRHVRLK the protein stability index was 0.6757 ± 0.00074.
Work on PTPPNSPRPPTP yielded a protein stability index of 0.63 ± 0.12.
LVRGRFVVFSGM was tested, and the protein stability index was 0.626 ± 0.034.
For RSVPLLFPSLFL, the protein stability index was 0.72 ± 0.027.
GVLGCCGLAWRG was tested, and the protein stability index was 0.697 ± 0.073.
LVAATGRCIKKP gave a protein stability index of 0.649 ± 0.061.
In the case of WAGGGVWRVGGR, the protein stability index is reported as 0.715 ± 0.042.
Sequence AGGGLGAEGCGG has a protein stability index of 0.788 ± 0.038.
In the case of NTCGYGRAIKST, the protein stability index is reported as 0.687 ± 0.016.
With LHPTPPPVLAPP the protein stability index was 0.654 ± 0.12.
LDHFGASYCPRG was tested, and the protein stability index was 0.706 ± 0.027.
VSKVGDMNSGSK gave a protein stability index of 0.651 ± 0.013.
With TGKQNRYVKKEK the protein stability index was 0.6955 ± 0.0031.
Sequence SPSYACLPPPIP has a protein stability index of 0.7461 ± 0.0032.
Work on GFLSYWYISFPF yielded a protein stability index of 0.641 ± 0.014.
In the case of RNDAARLLGESG, the protein stability index is reported as 0.698 ± 0.018.
With RTGVTKYSETLI the protein stability index was 0.677 ± 0.091.
With STGRLQLGNCLT the protein stability index was 0.635 ± 0.015.
For KRRQGRGAKGGE, the protein stability index was 0.629 ± 0.045.
VFMWRIRRRLVR gave a protein stability index of 0.598 ± 0.02.
In the case of RFGSFVSISRVG, the protein stability index is reported as 0.603 ± 0.14.
SYKSLGLVEFRV was tested, and the protein stability index was 0.712 ± 0.054.
In the case of PTLGDPSVLLLL, the protein stability index is reported as 0.69 ± 0.022.
With FPLPPPPSLSTP the protein stability index was 0.656 ± 0.036.
Sequence LICRRVRLSMRG has a protein stability index of 0.571 ± 0.028.
In the case of CSSLPPFPALPR, the protein stability index is reported as 0.701 ± 0.026.
Work on HSLLPSYPFLSP yielded a protein stability index of 0.715 ± 0.076.
For AGWCKGMWVSLG, the protein stability index was 0.656 ± 0.036.
For SSWEMMLYRLTE, the protein stability index was 0.693 ± 0.021.
Sequence NLMTPAWTNFSS has a protein stability index of 0.756 ± 0.077.
In the case of YLGFRVACPMLA, the protein stability index is reported as 0.501 ± 0.036.
Sequence VGMAGWSRVRWG has a protein stability index of 0.715 ± 0.0089.
With PGPSVRSWHPMD the protein stability index was 0.69 ± 0.082.
With VDLARWPVPEFW the protein stability index was 0.834 ± 0.022.
In the case of HLKRFLQVHARL, the protein stability index is reported as 0.82 ± 0.075.
ERSRRVSNIMVL gave a protein stability index of 0.48 ± 0.095.
EQRQVQVTWRQD showed a protein stability index of 0.66 ± 0.055.
SSLQGSCPSKSL showed a protein stability index of 0.7 ± 0.044.
With ALPETKVSRRQS the protein stability index was 0.677 ± 0.11.
Sequence RGPAFAQPLPFL has a protein stability index of 0.738 ± 0.034.
KTYKNKTQQNAS was tested, and the protein stability index was 0.746 ± 0.045.
With AEKSYRYIYGKT the protein stability index was 0.669 ± 0.029.
CQVDGTMLCSEC was tested, and the protein stability index was 0.652 ± 0.02.
With DMCLSVIEQTAC the protein stability index was 0.6123 ± 0.0028.
With PPSPLPPPPPHP the protein stability index was 0.651 ± 0.079.
In the case of GYWPWGLARVDV, the protein stability index is reported as 0.698 ± 0.017.
Work on REKKDGKLSTTR yielded a protein stability index of 0.761 ± 0.045.
Work on TSGAQSTRLGRE yielded a protein stability index of 0.778 ± 0.11.
Work on GEAVAGRRQESP yielded a protein stability index of 0.695 ± 0.073.
Work on SLASCLLRPPLY yielded a protein stability index of 0.693 ± 0.021.
In the case of NKKNKKRIGRNT, the protein stability index is reported as 0.736 ± 0.034.
Work on GGGGRVRDALGM yielded a protein stability index of 0.696 ± 0.048.
For GGWGRKCGGSGG, the protein stability index was 0.711 ± 0.018.
For RPPHSNPPRLVI, the protein stability index was 0.711 ± 0.045.
With FLISSGPSVSVL the protein stability index was 0.623 ± 0.026.
Work on FTGYPKHTRLPY yielded a protein stability index of 0.687 ± 0.017.
Work on GLESVGRVSLRG yielded a protein stability index of 0.657 ± 0.0094.
In the case of SGATVGVLCFAS, the protein stability index is reported as 0.58 ± 0.006.
For GRGRWRSVYLRG, the protein stability index was 0.622 ± 0.0078.
PLPRPPPPANSP was tested, and the protein stability index was 0.714 ± 0.063.
RNGGSTWPLLGA showed a protein stability index of 0.721 ± 0.017.
With SPTPPPPPPRPP the protein stability index was 0.581 ± 0.018.
With LLLPSLAPTPTA the protein stability index was 0.654 ± 0.025.
Work on SLGVPVVWGLWI yielded a protein stability index of 0.744 ± 0.032.
For AGISSLLVQSVP, the protein stability index was 0.679 ± 0.049.
Work on PPCAPFSPPALP yielded a protein stability index of 0.659 ± 0.05.
With VGAGRGKWRGGG the protein stability index was 0.6591 ± 0.0013.
PPAPTHSAPSQI showed a protein stability index of 0.655 ± 0.07.
KGEGGEGSMGGA gave a protein stability index of 0.733 ± 0.053.
ALASPIPCPPPP gave a protein stability index of 0.715 ± 0.056.
HTFSRLHSLPIR was tested, and the protein stability index was 0.693 ± 0.0082.
In the case of STPDIRYFPPWC, the protein stability index is reported as 0.706 ± 0.027.
For LPLLRWASPRGF, the protein stability index was 0.685 ± 0.0042.
Sequence RRSVQLQSALFI has a protein stability index of 0.736 ± 0.069.
